In US20240116985A1, “STAPLED PEPTIDES AND METHODS THEREOF” (priority 2020, published 2024):
Starred links: 1 amine or outer side, 2 acyl side, 3 side chain; linkers in the order of their positions; H or OH if unused. Positions of bridges follow the written chain, without caps; N, C: chain ends. Non-standard residues stand in square brackets, D forms with d. Groups on a side chain read outwards from the residue. Primed or numbered codes have the meaning given here. No end group written: not given here. *: point of attachment. PyrS2″ = (S)-3-amino-1-((pent-4-en-1-yloxy)carbonyl)pyrrolidine-3-carboxylic acid (stapling residue), C=CCCCOC(=O)N1CC[C@@](N[*:1])(C(=O)[*:2])C1; B5(4) = 2,2-bis(4-pentenyl)glycine = 2-amino-2-(pent-4-en-1-yl)hept-6-enoic acid (stitching residue), C=CCCCC(CCCC=C)(N[*:1])C(=O)[*:2]; B5(5) = 2,2-bis(4-pentenyl)glycine, 2-amino-2-(pent-4-en-1-yl)hept-6-enoic acid (stitching residue), C=CCCCC(CCCC=C)(N[*:1])C(=O)[*:2]; (CH2NMe2)4SEF = (S)-2-amino-3-(4-(3-(dimethylamino)prop-1-yn-1-yl)phenyl)propanoic acid, CN(C)CC#Cc1ccc(C[C@H](N[*:1])C(=O)[*:2])cc1; TfeGA = (S)-2-amino-3-((carboxymethyl)(2,2,2-trifluoroethyl)amino)propanoic acid, O=C([C@H](CN(CC(=O)[*:3])CC(F)(F)F)N[*:1])[*:2]; B5(31) = 2-amino-2-(pent-4-en-1-yl)hept-6-enoic acid (bis-pentenylglycine, stitching residue), C=CCCCC(CCCC=C)(N[*:1])C(=O)[*:2]; PyrS2 = (S)-3-amino-1-((pent-4-en-1-yloxy)carbonyl)pyrrolidine-3-carboxylic acid, C=CCCCOC(=O)N1CC[C@@](N[*:1])(C(=O)[*:2])C1; 5iPr3COOHF = (S)-3-(2-amino-2-carboxyethyl)-5-isopropylbenzoic acid, CC(C)c1cc(C[C@H](N[*:1])C(=O)[*:2])cc(C(=O)[*:3])c1; (3C)TriAzLys = (S)-2-amino-6-(4-propyl-1H-1,2,3-triazol-1-yl)hexanoic acid, CCCc1cn(CCCC[C@H](N[*:1])C(=O)[*:2])nn1; (bismethoxyethylamine)GlnR″ = N5,N5-bis(2-methoxyethyl)-L-glutamine, COCCN(CCOC)C(=O)CC[C@H](N[*:1])C(=O)[*:2]; Lithocholoyl = C[C@H](CCC(=O)*)[C@H]1CC[C@H]2[C@@H]3CC[C@@H]4C[C@H](O)CC[C@]4(C)[C@H]3CC[C@]12C; MorphAsn = (S)-2-amino-4-morpholino-4-oxobutanoic acid, O=C(C[C@H](N[*:1])C(=O)[*:2])N1CCOCC1; B5(3) = 2,2-bis(4-pentenyl)glycine (stitching residue), C=CCCCC(CCCC=C)(N[*:1])C(=O)[*:2]; Me3AdamantC = 3,5,7-trimethyladamantane-1-carbonyl, CC12CC3(C)CC(C)(C1)CC(C(=O)*)(C2)C3; CO2Hex = N-term cyclohexyl hydrogen carbonate, O=C(OC1CCCCC1)*; CO2Ph = N-term phenyl hydrogen carbonate, O=C(Oc1ccccc1)*; Nva(5-morpholino) = N[C@@H](CCCN1CCOCC1)C(=O)O; Phe(3-COOH) = N[C@@H](Cc1cccc(C(=O)O)c1)C(=O)O; 2F3MeF = Cc1cccc(C[C@H](N[*:1])C(=O)[*:2])c1F; Phe(2-CF3) = N[C@@H](Cc1ccccc1C(F)(F)F)C(=O)O; Phe(2-Cl) = N[C@@H](Cc1ccccc1Cl)C(=O)O; Bta = N[C@@H](Cc1csc2ccccc12)C(=O)O; Lys(iPr) = CC(C)NCCCC[C@H](N)C(=O)O; αAllylPro = C=CC[C@@]1(C(=O)O)CCCN1; Azidoacetyl = [N-]=[N+]=NCC(=O)*; tBuAla = CC(C)(C)C[C@H](N)C(=O)O; 3Thi = N[C@@H](Cc1ccsc1)C(=O)O; Cha = N[C@@H](CC1CCCCC1)C(=O)O; hSer = N[C@@H](CCO)C(=O)O; 34ClF = not defined here; PEG2′ = not defined here; Aib = CC(C)(N)C(=O)O; Moc = COC(=O)*

B1: I-2417 (peptide)
peptide: Ac-[αAllylPro]D[tBuAla][B5(5)]NT[Aib]AFN[PyrS2″][3Thi][34ClF]Q-NH2
modifications: staple 1-4, 4-11; reading uncertain; also: printed as Ac-PL3-Asp-Npg-B5-Asn-Thr-Aib-Ala-Phe-Asn-PyrS2-3Thi-34C1F-Gln-NH2

These binders were tested against full-length beta-Catenin (Uniprot ID P35222) (Homo sapiens (Human)) (UniProt P35222) (assay: fluorescence polarization competition; full-length beta-catenin, competitor 5FAM-TCF4(10-53) probe).

EC50 [nM]	IC50 [nM]	Binder
6490	–	Azidoacetyl-[αAllylPro]D[tBuAla][B5(5)][3Thi][TfeGA]AAFN[PyrS2]D[Bta]Q-NH2 (staple 1-4, 4-11; also: staple isomer unspecified: earlier eluting HPLC peak) [I-1056]
–	656	Ac-[αAllylPro]D[tBuAla][B5(31)]NTAAFT[PyrS2″][3Thi][Bta]A-NH2 (staple 1-4, 4-11) [I-2334]
7	–	Azidoacetyl-[αAllylPro]D[tBuAla][B5(5)]DDAAFN[PyrS2]F[Bta]H-NH2 (staple 1-4, 4-11) [I-1055]
–	360	Ac-[αAllylPro]N[tBuAla][B5(5)]DQAAFH[PyrS2″]F[Bta]Q-NH2 (staple 1-4, 4-11) [I-2440]
–	203	Ac-[αAllylPro]N[Cha][B5(5)]DQ[hSer]AFL[PyrS2″]F[Bta]K-NH2 (staple 1-4, 4-11) [I-2419]
–	10000	Ac-[αAllylPro]E[tBuAla][B5(31)]NTAAFN[PyrS2″][3Thi][Bta]Q-NH2 (staple 1-4, 4-11; also: staple isomer, earlier eluting HPLC peak) [I-2331]
–	2120	Ac-[αAllylPro]N[Cha][B5(5)]DQNAFL[PyrS2″]F[Bta]K-NH2 (staple 1-4, 4-11) [I-2420]
–	60	Ac-[αAllylPro]D[tBuAla][B5(5)]D[Phe(3-COOH)]AAFL[PyrS2″][Phe(2-CF3)][Bta]S[(3C)TriAzLys]-NH2 (staple 1-4, 4-11) [I-2432]
–	2760	Ac-[αAllylPro][hSer][tBuAla][B5(5)]DQAAFH[PyrS2″]F[Bta]Q-NH2 (staple 1-4, 4-11) [I-2439]
–	7	Ac-[αAllylPro]D[tBuAla][B5(3)]N[Phe(3-COOH)]AAFN[PyrS2″][3Thi][Bta]Q-NH2 (staple 1-4, 4-11) [I-2335]
–	145	Ac-[αAllylPro]N[Cha][B5(5)]DQQAFL[PyrS2″]F[Bta]K-NH2 (staple 1-4, 4-11) [I-2421]
–	83	Moc-[αAllylPro]D[tBuAla][B5(3)]D[Phe(3-COOH)]AAFL[PyrS2″][Phe(2-Cl)][Bta]A-NH2 (staple 1-4, 4-11) [I-2324]
–	140	Ac-[αAllylPro]D[tBuAla][B5(5)]NT[Aib]AFN[PyrS2″][3Thi][Bta]A-NH2 (staple 1-4, 4-11) [I-2411]
–	401	Ac-[αAllylPro]N[Cha][B5(5)]DQ[Lys(iPr)]AFL[PyrS2″]F[Bta][Nva(5-morpholino)]-NH2 (staple 1-4, 4-11) [I-2428]
–	3360	Ac-[αAllylPro]N[Cha][B5(5)]DQSAFL[PyrS2″]F[Bta]K-NH2 (staple 1-4, 4-11) [I-2422]
–	33	Ac-[αAllylPro]D[tBuAla][B5(5)]D[5iPr3COOHF]QAFL[PyrS2″][Phe(2-CF3)][Bta]A-NH2 (staple 1-4, 4-11) [I-2431]
–	267	Ac-[αAllylPro]D[tBuAla][B5(5)]NT[Aib]AFN[PyrS2″][3Thi][Bta]F-NH2 (staple 1-4, 4-11) [I-2412]

EC50 [nM]	IC50 [nM]	Binder
38	–	Azidoacetyl-[αAllylPro]D[tBuAla][B5(5)]DDAAFT[PyrS2][Phe(2-Cl)][Bta][dT]-NH2 (staple 1-4, 4-11) [I-1060]
–	133	Ac-[αAllylPro]D[tBuAla][B5(5)]NT[Aib]AFN[PyrS2″][3Thi][Bta]R-NH2 (staple 1-4, 4-11) [I-2413]
–	46	Ac-[αAllylPro]N[Cha][B5(5)]DQ[Lys(iPr)]AFL[PyrS2″]F[Bta][MorphAsn]-NH2 (staple 1-4, 4-11) [I-2426]
–	7	Ac-[αAllylPro]D[tBuAla][B5(4)]D[Phe(3-COOH)][(bismethoxyethylamine)GlnR″]AFL[PyrS2″][2F3MeF][Bta]A-NH2 (staple 1-4, 4-11) [I-2322]
–	158	B1
–	10000	Ac-[αAllylPro]N[tBuAla][B5(31)]NTAAFN[PyrS2″][3Thi][Bta]Q-NH2 (staple 1-4, 4-11) [I-2333]
14	–	Azidoacetyl-[αAllylPro]D[tBuAla][B5(5)]DDAAFN[PyrS2][3Thi][Bta][dT]-NH2 (staple 1-4, 4-11) [I-1058]
–	10000	Ac-[αAllylPro]E[tBuAla][B5(31)]NTAAFN[PyrS2″][3Thi][Bta]Q-NH2 (staple 1-4, 4-11) [I-2332]
–	10	Ac-[αAllylPro]D[Cha][B5(5)]DQ[Lys(iPr)]AFL[PyrS2″]F[Bta]K-NH2 (staple 1-4, 4-11) [I-2429]
–	10000	Ac-[αAllylPro]D[tBuAla][B5(5)]NT[Aib]AFL[PyrS2][3Thi][Bta]Q-NH2 (staple 1-4, 4-11) [I-2408]
6640	–	Azidoacetyl-[αAllylPro]D[tBuAla][B5(5)][3Thi][TfeGA]AAFN[PyrS2]D[Bta]Q-NH2 (staple 1-4, 4-11; also: staple isomer unspecified: later eluting HPLC peak) [I-1057]
–	376	CO2Ph-[αAllylPro]D[tBuAla][B5(31)]D[Phe(3-COOH)]AAFL[PyrS2″][Phe(2-Cl)][Bta]A-NH2 (staple 1-4, 4-11) [I-2327]
–	1350	CO2Hex-[αAllylPro]D[tBuAla][B5(31)]D[Phe(3-COOH)]AAFL[PyrS2″][Phe(2-Cl)][Bta]A-NH2 (staple 1-4, 4-11) [I-2325]
–	185	CO2Ph-[αAllylPro]D[tBuAla][B5(31)]DDAAFQ[PyrS2″][3Thi][Bta]H-NH2 (staple 1-4, 4-11) [I-2326]
–	1760	Ac-[αAllylPro][hSer][tBuAla][B5(5)]DHAAFT[PyrS2″]F[Bta]Q-NH2 (staple 1-4, 4-11) [I-2438]
–	568	{2‑(3-(allyloxy)phenyl)acetyl}-PD[tBuAla][B5(5)]D[TfeGA]AAFL[PyrS2][3Thi][Bta]Q-NH2 (staple 4-11, N-4; also: staples hydrogenated, -CH=CH- reduced to -CH2-CH2-) [I-2405]

These binders were tested against full-length beta-Catenin (Uniprot ID P35222) (Homo sapiens (Human)) (UniProt P35222) (assay: fluorescence polarization competition; displacement of 5FAM-TCF4(10-53) from full-length beta-catenin).
Target sequence in this assay (P35222 whole entry): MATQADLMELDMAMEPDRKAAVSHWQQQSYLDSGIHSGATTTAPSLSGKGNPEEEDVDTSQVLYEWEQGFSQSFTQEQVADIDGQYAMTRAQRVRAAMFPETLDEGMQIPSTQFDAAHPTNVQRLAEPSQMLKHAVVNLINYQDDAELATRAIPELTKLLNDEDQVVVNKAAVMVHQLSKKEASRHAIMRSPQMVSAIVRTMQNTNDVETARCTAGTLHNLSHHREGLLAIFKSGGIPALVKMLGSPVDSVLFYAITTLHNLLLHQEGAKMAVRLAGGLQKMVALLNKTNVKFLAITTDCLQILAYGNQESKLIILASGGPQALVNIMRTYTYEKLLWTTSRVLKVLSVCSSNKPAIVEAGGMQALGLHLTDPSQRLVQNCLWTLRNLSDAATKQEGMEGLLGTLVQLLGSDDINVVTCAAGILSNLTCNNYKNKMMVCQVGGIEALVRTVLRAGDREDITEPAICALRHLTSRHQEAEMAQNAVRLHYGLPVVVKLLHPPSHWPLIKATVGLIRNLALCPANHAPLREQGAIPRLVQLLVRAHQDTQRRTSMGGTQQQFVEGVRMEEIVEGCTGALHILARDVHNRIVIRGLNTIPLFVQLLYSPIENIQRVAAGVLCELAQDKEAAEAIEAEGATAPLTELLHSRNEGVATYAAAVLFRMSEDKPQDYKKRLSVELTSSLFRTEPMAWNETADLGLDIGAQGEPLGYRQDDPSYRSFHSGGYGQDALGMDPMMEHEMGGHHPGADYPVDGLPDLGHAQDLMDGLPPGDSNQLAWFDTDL

IC50 [nM]	Binder
5	Ac-[αAllylPro]D[tBuAla][B5(5)]DDAAFQ[PyrS2][3Thi][Bta]H-NH2 (staple 1-4, 4-11) [I-1459]
57	Ac-[αAllylPro]DK([PEG2′-Lithocholoyl])[B5(4)]DDAAFL[PyrS2][3Thi][Bta]Q-NH2 (staple 1-4, 4-11) [I-1470]
34	Ac-[αAllylPro]DK(Me3AdamantC)[B5(4)]DDAAFL[PyrS2][3Thi][Bta]Q-NH2 (staple 1-4, 4-11) [I-1471]
12	Ac-[αAllylPro]D[tBuAla][B5(4)]DD[(CH2NMe2)4SEF]AFL[PyrS2]F[Bta]Q (staple 1-4, 4-11) [I-1467]
7	Ac-[αAllylPro]D[tBuAla][B5(5)]DDAAFQ[PyrS2][3Thi][Bta]H-NH2 (staple 1-4, 4-11) [I-1460]
95	Ac-[αAllylPro]DK(Lithocholoyl)[B5(5)]DDAAFL[PyrS2][3Thi][Bta]Q-NH2 (staple 1-4, 4-11) [I-1469]
